Where two headings read alike, the source gives them in different places.
B3: Sino Biologics cynomolgus PDGF-BB Fc tag (Fc fusion, cynomolgus monkey, not shown: a dimerising Fc or GST)
chain: SLGSLTVAEPAMIAECKTRTEVFEISRRLIDRTNANFLVWPPCVEVQRCSGCCNNRNVQCRPTQVQLRPVQVRKIEIVRKKPIFKKATVTLEDHLACKCETVAAARPVT
B5: mouse PDGF-BB (ligand, UniProt P31240 82-190, looked up)
chain: SLGSLAAAEPAVIAECKTRTEVFQISRNLIDRTNANFLVWPPCVEVQRCSGCCNNRNVQCRASQVQMRPVQVRKIEIVRKKPIFKKATVTLEDHLACKCETIVTPRPVT
B6: cynomolgus monkey (Macaca fascicularis) PDGF-BB (ligand)
chain: SLGSLTVAEPAMIAECKTRTEVFEISRRLIDRTNANFLVWPPCVEVQRCSGCCNNRNVQCRPTQVQLRPVQVRKIEIVRKKPIFKKATVTLEDHLACKCETVAAARPVT

What was measured:
[1] = target: B6; assay: SPR (Biacore T200 or MASS-2), mAb captured by anti-human Fc, 25 C
Description: (§1) All binding studies were performed in 10 mM HEPES, 300 mM NaCl, and 0.05% v/v Surfactant Tween-20, pH 7.4 (HBS-P) running buffer at 25° C.
(§2) The association rate (kₐ) and dissociation rate (kd) were determined by fitting the real-time binding sensorgrams to a 1:1 binding model with mass transport limitation using Scrubber 2.0c curve-fitting software. Binding dissociation equilibrium constant (KD) and dissociative half-life (t½) were calculated from the kinetic rates as: […]

rat PDGF-BB = target: T1, rat PDGF-BB (rat, UniProt Q05028 74-182); assay: as above
T1 construct: also called rPDGF-BB
Description: as §1, §2

mouse PDGF-BB [2] = target: B5; assay: SPR, 37 C (listed in PK study table)
[3] = target: B6; assay: cell-based or functional assay
human PDGF-AB [4] = target: T2, human PDGF-AB (human, UniProt P04085 87-211); assay: cell-based or functional assay
human PDGF-AB [5] = target: T2, human PDGF-AB; assay: cell-based or functional assay; remark: listed apart in the source
mouse PDGF-BB [6] = target: B5; assay: SPR, captured mAb, 37 C
Description: (§3) The equilibrium dissociation constants (KD values) for human and mouse PDGF-B binding to purified anti-PDGF-B monoclonal antibodies of this disclosure were determined using a real-time surface plasmon resonance (SPR) biosensor instrument, MASS-1. All binding studies were performed in 10 mM HEPES, 300 mM NaCl, 3 mM EDTA, 1 μg/mL Heparin, and 0.05% v/v Surfactant Tween-20, pH 7.4 (HBS-T) running buffer at 25° C. and 37° C. […] The HCA sensor surface was first derivatized by amine coupling the monoclonal mouse anti-human Fc antibody (GE, #BR100839) and anti-PDGF-B monoclonal antibodies were individually captured. […] Kinetic association (kₐ) and dissociation (kd) rate constants were determined by fitting the real-time binding sensorgrams to a 1:1 binding model with mass transport limitation using Scrubber 2.0c software. Binding dissociation equilibrium constant (KD) and dissociative half-life (t½) for different anti-PDGF-B monoclonal antibodies were calculated from the kinetic rate constants as: […]

mouse PDGF-BB [7] = target: B5; assay: SPR (Bia-core), 37 C as headed
[8] = target: B6; assay: SPR (Bia-core), 37 C as headed
human PDGF-AB [9] = target: T2, human PDGF-AB; assay: cell-based or functional assay; remark: listed apart in the source
[10] = target: B6; assay: SPR (Bia-core), 37 C as headed; 37 C as headed
mouse PDGF-BB [11] = target: B5; assay: SPR, captured mAb, 25 C
Description: as §3

[12] = target: B6; assay: SPR (Bia-core), 37 C as headed; 37 C as headed; remark: listed apart in the source
mouse PDGF-BB [13] = target: B5; assay: SPR (Bia-core), 37 C as headed; remark: listed apart in the source
[14] = target: B6; assay: SPR (Bia-core), 37 C as headed; remark: listed apart in the source
mouse PDGF-BB [15] = target: B5; assay: cell-based or functional assay
[16] = target: B6; assay: cell-based or functional assay; remark: listed apart in the source
[17] = target: mfPDGFRβ-ecto/hPDGFRb-cyto (monkey (mf); human, UniProt P09619 554-1106); assay: cell-based or functional assay
Chain of mfPDGFRβ-ecto/hPDGFRb-cyto (P09619 554-1106): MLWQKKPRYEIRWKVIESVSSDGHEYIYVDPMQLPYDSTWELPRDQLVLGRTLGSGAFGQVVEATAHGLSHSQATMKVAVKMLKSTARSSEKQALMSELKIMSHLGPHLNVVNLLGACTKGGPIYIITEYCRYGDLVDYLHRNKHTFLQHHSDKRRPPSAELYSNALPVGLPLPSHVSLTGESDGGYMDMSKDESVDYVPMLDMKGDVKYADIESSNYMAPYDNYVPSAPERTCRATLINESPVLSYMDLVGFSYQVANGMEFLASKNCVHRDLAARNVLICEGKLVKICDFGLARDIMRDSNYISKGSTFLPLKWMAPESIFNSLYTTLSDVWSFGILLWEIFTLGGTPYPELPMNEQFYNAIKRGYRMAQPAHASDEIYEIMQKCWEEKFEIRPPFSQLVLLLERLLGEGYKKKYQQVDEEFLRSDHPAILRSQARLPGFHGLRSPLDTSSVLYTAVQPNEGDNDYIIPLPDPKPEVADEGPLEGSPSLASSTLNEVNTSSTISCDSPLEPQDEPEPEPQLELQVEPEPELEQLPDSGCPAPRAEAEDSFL

[18] = target: B3; assay: SPR 25C, mAb captured on anti-hFc; analyte Monkey PDGF-BB Fc homodimer-mouse Fc (IgG1) tag (Sino Biological)
Description: The sample was injected at 25 uL/minute for 3 minutes and the dissociation was monitored for 10 minutes. The kinetics parameters were evaluated by fitting the real time data using 1:1 binding model with mass transport limitation.

[19] = target: Cynomolgus monkey PDGF-BB (cynomolgus monkey (Macaca fascicularis), UniProt A0A2K5UX81 82-190); assay: cell-based or functional assay
human PDGF-AB [20] = target: T3, human PDGF-AB (human, UniProt P04085 87-211); assay: blocking ELISA: 100 pM Biot-PDGF-AB on 1 ug/ml hPDGFRb-mmH
T3 construct: also called hPDGF-AB; hPDGF AB

mouse PDGF-BB [21] = target: T4, mouse PDGF-BB (mouse, UniProt P31240 82-190, limits assumed); assay: SPR MASS-1, captured mAb, 37C
T4 construct: also called mPDGF-BB; mPDGF-B
Description: as §3

[22] = target: T5, human PDGFRβ on HEK293/SRE-luc/hPDGFRβ cells (human, UniProt P09619 33-1106); assay: cell-based or functional assay
T5 sequence (P09619 33-1106): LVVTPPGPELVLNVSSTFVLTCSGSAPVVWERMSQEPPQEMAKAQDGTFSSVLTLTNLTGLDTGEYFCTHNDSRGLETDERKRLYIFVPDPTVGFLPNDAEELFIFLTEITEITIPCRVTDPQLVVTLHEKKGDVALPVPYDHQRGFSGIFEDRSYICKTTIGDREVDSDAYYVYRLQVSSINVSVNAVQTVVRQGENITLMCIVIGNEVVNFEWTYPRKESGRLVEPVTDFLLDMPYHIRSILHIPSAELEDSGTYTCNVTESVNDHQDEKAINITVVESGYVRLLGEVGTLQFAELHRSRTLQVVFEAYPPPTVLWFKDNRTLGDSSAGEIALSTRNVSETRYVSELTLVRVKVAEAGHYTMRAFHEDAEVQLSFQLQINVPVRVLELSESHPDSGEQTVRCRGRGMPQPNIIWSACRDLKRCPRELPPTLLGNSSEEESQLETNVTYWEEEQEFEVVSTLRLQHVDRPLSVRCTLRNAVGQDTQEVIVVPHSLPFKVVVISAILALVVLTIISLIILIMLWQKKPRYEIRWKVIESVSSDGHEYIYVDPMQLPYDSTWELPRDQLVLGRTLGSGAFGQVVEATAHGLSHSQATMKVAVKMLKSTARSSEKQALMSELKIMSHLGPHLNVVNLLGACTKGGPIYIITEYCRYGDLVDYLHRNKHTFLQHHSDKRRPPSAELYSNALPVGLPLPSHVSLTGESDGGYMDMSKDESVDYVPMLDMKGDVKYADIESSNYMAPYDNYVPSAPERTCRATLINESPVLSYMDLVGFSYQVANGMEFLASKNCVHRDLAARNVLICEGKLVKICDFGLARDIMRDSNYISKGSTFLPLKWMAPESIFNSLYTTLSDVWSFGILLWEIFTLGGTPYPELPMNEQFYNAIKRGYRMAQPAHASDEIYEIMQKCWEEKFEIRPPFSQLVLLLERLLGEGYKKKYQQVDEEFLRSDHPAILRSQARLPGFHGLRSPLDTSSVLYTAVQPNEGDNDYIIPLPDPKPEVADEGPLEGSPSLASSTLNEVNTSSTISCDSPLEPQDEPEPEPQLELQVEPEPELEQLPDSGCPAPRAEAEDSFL

[23] = target: T5, human PDGFRβ on HEK293/SRE-luc/hPDGFRβ …; assay: cell-based or functional assay; remark: listed apart in the source

B1: H4H13132P (antibody, human IgG4 S228P, kappa, V domains shown)
VH: QVQLVQSGAEVKKPGSSVKVSCKASGGTFSSYAISWVRQAPGQGLEWMGGIIPIFGTANYAQKFQGRVTITTDESTSTAYMELSSLRSEDTAVYYCAREGYGDYYFGMDVWGQGTTVTVSS
VL: not shown
notes: also called REGN15171; anti-PDGF-B antibody 2
**Q.** What does the source list for B1?
**A.** Kd [1]: 0.00967 nM; t½ [1]: 4.62 h; Kd (rat PDGF-BB): 0.103 nM; t½ (rat PDGF-BB): 0.683 h; Kd (mouse PDGF-BB [2]): 0.0867 nM; IC50 (head printed IC51), SRE-luciferase, 500 pM mfPDGFBB [3]: 8.9e-09 M; (%) Inhibition, calcium flux in HLF cells, 1 nM ligand, Full Time Course (human PDGF-AB [4]): 63%; A647 Intensity, internalization in PASMC, pre-blocking Ab: NA (human PDGF-AB [5]): 772000; Kd (mouse PDGF-BB [6]): 0.0867 nM; Kd (mouse PDGF-BB [7]): 0.0867 nM; t1/2 [8]: 4.62 h; A647 Intensity, internalization in NHLF, pre-blocking Ab: NA (human PDGF-AB [9]): 679000; Kd [10]: 0.00967 nM

B2: H4H13145P (antibody, human IgG4 S228P, kappa, V domains shown)
VH: QVQLVQSGTEVKKPGASVKVSCKASGYTYGAYAISWVRQAPGQGLEWMGWISAYNGNTNYAQKFQDRVTMTTDTSTNTAYMELRGLKSDDTAVYFCARAWNSFDYWGQGTLVTVSS
VL: not shown
notes: also called REGN13335; anti-PDGF-B antibody 1
**Q.** Which results are given for B2?
**A.** Kd (mouse PDGF-BB [11]): ≤ 0.0023 nM; Kd [1]: 0.0161 nM; t½ [1]: 12.8 h; Kd (rat PDGF-BB): 0.125 nM; t½ (rat PDGF-BB): 0.682 h; Kd (mouse PDGF-BB [2]): 0.000954 nM; Kd [12]: 0.0161 nM; A647 Intensity, internalization in PASMC, pre-blocking Ab: NA (human PDGF-AB [5]): 2.4e+07; Kd (mouse PDGF-BB [6]): 0.000954 nM; A647 Intensity, internalization in NHLF, pre-blocking Ab: NA (human PDGF-AB [9]): 1.9e+07; Kd (mouse PDGF-BB [13]): 0.000954 nM; t1/2 [14]: 12.8 h; IC50, SRE-luciferase, 600 pM mPDGFBB (mouse PDGF-BB [15]): 4.5e-10 M; IC50 (head printed IC51), SRE-luciferase, 500 pM mfPDGFBB [16]: 3.2e-10 M

**Q.** Which “EC50, luciferase in HEK293/SRE-Luc/mfPDGFRβ-ecto/hPDGFRb-cyto cells” value [17] does the source give for B3 here?
**A.** 0.167 nM

B4: H4H13132P (antibody, human IgG4 S228P, kappa, V domains shown)
VH: QVQLVQSGAEVKKPGSSVKVSCKASGGTFSSYAISWVRQAPGQGLEWMGGIIPIFGTANYAQKFQGRVTITTDESTSTAYMELSSLRSEDTAVYYCAREGYGDYYFGMDVWGQGTTVTVSS
VL: not shown
notes: also called REGN15171
**Q.** B4 was tested. Which Kd [18] did it give?
**A.** 0.0256 nM

**Q.** What about the “t½” value [18] of the same binder?
**A.** 18.4 h

**Q.** What about the “IC50, luciferase in HEK293/SRE-Luc/mfPDGFRβ-ecto/hPDGFRb-cyto cells” value [19] of the same binder?
**A.** 0.781 nM

**Q.** What about the IC50 (human PDGF-AB [20]) of the same binder?
**A.** 14 nM

**Q.** What about the Kd (mouse PDGF-BB [21]) of the same binder?
**A.** 0.0867 nM

**Q.** B5 was tested. Which “EC50 of ligand, SRE-luciferase in HEK293/SRE-luc/hPDGFRβ cells” value [22] did it give?
**A.** 0.93 nM

**Q.** And the “EC50 of ligand, SRE-luciferase in HEK293/SRE-luc/hPDGFRβ cells” value [23]?
**A.** 0.93 nM

**Q.** What does the source list for B6?
**A.** EC50 of ligand, SRE-luciferase in HEK293/SRE-luc/hPDGFRβ cells [22]: 0.064 nM; EC50 of ligand, SRE-luciferase in HEK293/SRE-luc/hPDGFRβ cells [23]: 0.064 nM

B7: H4H13145P (antibody, human IgG4 S228P, kappa, V domains shown)
VH: QVQLVQSGTEVKKPGASVKVSCKASGYTYGAYAISWVRQAPGQGLEWMGWISAYNGNTNYAQKFQDRVTMTTDTSTNTAYMELRGLKSDDTAVYFCARAWNSFDYWGQGTLVTVSS
VL: not shown
notes: also called REGN13335
**Q.** What does the source list for B7?
**A.** Kd [18]: 0.0268 nM; t½ [18]: 17.8 h; Kd (mouse PDGF-BB [21]): 0.000954 nM

— patent US20220242943A1 (Regeneron, published 2022)
